Among the data in PMC9162458 are Kd values, retold here.

The target of assay [1] is LiRAD51^ATPase (Leishmania infantum RAD51 ATPase domain, residues 134–386) (Leishmania infantum). As to the kind of experiment: fluorescence polarisation; competition: 5 nM Fluor-NCys-LiBRC1 probe with 500 nM LiRAD51^ATPase, GB1-LiBRC repeats in serial dilutions; KD estimated from the fitted IC50; 50 mM Tris pH 8.0, 150 mM NaCl, 100 mM Li2SO4, 1% BSA, 0.1% Tween-20.
Assay [2] shares this target. The experiment in a line: ITC; LiBRC1 peptide in the syringe, LiRAD51^ATPase in the cell; 25°C; 20 mM Tris pH 8.0, 150 mM NaCl, 100 mM Li2SO4; single-site binding model.
The target of assay [3] is Fluor-NCys-LiBRC1 probe (Leishmania infantum). As to the kind of experiment: fluorescence polarisation; direct titration: LiRAD51^ATPase in two-fold serial dilutions into 5 nM Fluor-NCys-LiBRC1 probe; 50 mM Tris pH 8.0, 150 mM NaCl, 100 mM Li2SO4, 1% BSA, 0.1% Tween-20. For orientation: Polarisation of emitted light reports the rotation of a fluorescent probe.

Broadly, the Kd is the free concentration of one partner at which half of the binding sites on the other are occupied at equilibrium, for simple one-to-one binding. For “GB1-LiBRC1-His8 (BRC repeat 1 of Leishmania infantum BRCA2 fused to GB1) (domain or fragment)”, the equilibrium dissociation constant (Kd) in assay [1] was 0.29 µM.

For LiBRC1 free peptide, the equilibrium dissociation constant (Kd) in assay [2] amounted to 0.65 µM.

For the substance “LiBRC1.7 (C-terminal truncation of LiBRC1, residues up to Arg134 removed, GB1 fusion) (domain or fragment)”, in assay [1], the Kd is 0.39 µM.

For “LiBRC1.8 (C-terminal truncation of LiBRC1, Glu133 also removed, GB1 fusion) (domain or fragment)”, in assay [1], the Kd was 2.09 µM.

As to “LiBRC1.10 (C-terminal truncation of LiBRC1, Val131 also removed, GB1 fusion) (domain or fragment)”, the Kd in assay [1] is 10.1 µM.

In the case of “LiBRC1.11 (C-terminal truncation of LiBRC1 up until Gln129, GB1 fusion) (domain or fragment)”, the Kd in assay [1] was 8.7 µM.

“LiBRC2.1 (LiBRC2 Gly154 to alanine, GB1 fusion) (domain or fragment)”: the Kd in assay [1] is 10.6 µM.

In turn, “LiRAD51^ATPase (Leishmania infantum RAD51 ATPase domain, residues 134–386) (domain or fragment)” had a Kd in assay [3] of 0.165 µM.
